In the supplement of paper PMC10567573 one finds protein stability index data, which are given here for 94 variants.

B1: ZNF511 (parent)
chain: AAPFRFVARPVRFPREHQFFEDGD
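Also: lentivirally expressed fusions sorted by FACS into six bins by GFP to DsRed ratio, PSI derived from sequencing read proportions per bin multiplied by bin number.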

This data set covers variants of B1. Nature of the data set: protein stability index of a GFP-peptide fusion (GPS, HEK-293T) (PSI 1-6); higher = more stable. The conditions noted are these: c terminus: a fixed tail appended.
Regarding AAKFRFVARPVRFPREHQFFEDGD, the protein stability index worked out at 1.81.

On to AAYFRFVARPVRFPREHQFFEDGD, for which the protein stability index was determined as 2.47.

Take AAAFRFVARPVRFPREHQFFEDGD: the protein stability index is 2.37.

As to AARFRFVARPVRFPREHQFFEDGD, the protein stability index was 2.65.

Consider AAWFRFVARPVRFPREHQFFEDGD, for which the protein stability index came out at 3.21.

Consider AAHFRFVARPVRFPREHQFFEDGD, for which the protein stability index stood at 2.59.

AAMFRFVARPVRFPREHQFFEDGD: the protein stability index turned out to be 1.62.

With AADFRFVARPVRFPREHQFFEDGD, the protein stability index came to 1.06.

As to AACFRFVARPVRFPREHQFFEDGD, the protein stability index stood at 1.36.

Take AATFRFVARPVRFPREHQFFEDGD: the protein stability index worked out at 2.1.

Consider AAVFRFVARPVRFPREHQFFEDGD, for which the protein stability index was found to be 1.53.

As for AAFFRFVARPVRFPREHQFFEDGD, the protein stability index was determined as 1.53.

AASFRFVARPVRFPREHQFFEDGD: the protein stability index was determined as 2.76.

Regarding AANFRFVARPVRFPREHQFFEDGD, the protein stability index was found to be 2.04.

Regarding AAGFRFVARPVRFPREHQFFEDGD, the protein stability index was found to be 1.66.

Turning to AALFRFVARPVRFPREHQFFEDGD, the protein stability index turned out to be 1.93.

Take AAIFRFVARPVRFPREHQFFEDGD: the protein stability index was 1.34.

Turning to AAEFRFVARPVRFPREHQFFEDGD, the protein stability index amounted to 1.61.

Take AAQFRFVARPVRFPREHQFFEDGD: the protein stability index is 2.26.

With AAPFMFVARPVRFPREHQFFEDGD, the protein stability index was 3.25.

As for AAPFGFVARPVRFPREHQFFEDGD, the protein stability index is 3.68.

AAPFSFVARPVRFPREHQFFEDGD: the protein stability index came to 4.16.

As for AAPFYFVARPVRFPREHQFFEDGD, the protein stability index was 2.15.

Take AAPFCFVARPVRFPREHQFFEDGD: the protein stability index came out at 3.05.

For the variant AAPFQFVARPVRFPREHQFFEDGD, the protein stability index was determined as 4.61.

Consider AAPFPFVARPVRFPREHQFFEDGD, for which the protein stability index was found to be 3.92.

Regarding AAPFWFVARPVRFPREHQFFEDGD, the protein stability index was 1.89.

As for AAPFDFVARPVRFPREHQFFEDGD, the protein stability index is 4.8.

With AAPFEFVARPVRFPREHQFFEDGD, the protein stability index stood at 4.26.

With AAPFVFVARPVRFPREHQFFEDGD, the protein stability index was found to be 3.58.

Regarding AAPFHFVARPVRFPREHQFFEDGD, the protein stability index came to 3.3.

As for AAPFFFVARPVRFPREHQFFEDGD, the protein stability index was 2.18.

As to AAPFTFVARPVRFPREHQFFEDGD, the protein stability index came out at 4.17.

As for AAPFAFVARPVRFPREHQFFEDGD, the protein stability index is 3.53.

In the case of AAPFIFVARPVRFPREHQFFEDGD, the protein stability index is 2.67.

As to AAPFLFVARPVRFPREHQFFEDGD, the protein stability index came out at 2.63.

On to AAPFNFVARPVRFPREHQFFEDGD, for which the protein stability index is 4.22.

In the case of AAPFKFVARPVRFPREHQFFEDGD, the protein stability index stood at 3.91.

For AAPFRFIARPVRFPREHQFFEDGD, the protein stability index was determined as 2.53.

For AAPFRFHARPVRFPREHQFFEDGD, the protein stability index is 2.04.

As to AAPFRFAARPVRFPREHQFFEDGD, the protein stability index stood at 3.9.

For AAPFRFDARPVRFPREHQFFEDGD, the protein stability index is 3.73.

Turning to AAPFRFCARPVRFPREHQFFEDGD, the protein stability index is 2.65.

On to AAPFRFEARPVRFPREHQFFEDGD, for which the protein stability index is 4.61.

For AAPFRFFARPVRFPREHQFFEDGD, the protein stability index worked out at 3.69.

Take AAPFRFGARPVRFPREHQFFEDGD: the protein stability index amounted to 3.74.

For APPFRFVARPVRFPREHQFFEDGD, the protein stability index stood at 2.32.

As to ATPFRFVARPVRFPREHQFFEDGD, the protein stability index is 2.28.

Regarding AYPFRFVARPVRFPREHQFFEDGD, the protein stability index came out at 2.42.

AWPFRFVARPVRFPREHQFFEDGD: the protein stability index was determined as 1.47.

Consider ANPFRFVARPVRFPREHQFFEDGD, for which the protein stability index is 3.12.

AQPFRFVARPVRFPREHQFFEDGD: the protein stability index came to 2.1.

Regarding ARPFRFVARPVRFPREHQFFEDGD, the protein stability index is 1.93.

For the variant AMPFRFVARPVRFPREHQFFEDGD, the protein stability index is 2.11.

Consider AVPFRFVARPVRFPREHQFFEDGD, for which the protein stability index is 1.53.

For ASPFRFVARPVRFPREHQFFEDGD, the protein stability index stood at 3.91.

Turning to AAPTRFVARPVRFPREHQFFEDGD, the protein stability index is 4.36.

As for AAPMRFVARPVRFPREHQFFEDGD, the protein stability index came to 3.34.

AAPARFVARPVRFPREHQFFEDGD: the protein stability index was 4.66.

Turning to AAPQRFVARPVRFPREHQFFEDGD, the protein stability index is 4.68.

As to AAPHRFVARPVRFPREHQFFEDGD, the protein stability index turned out to be 4.58.

Turning to AAPPRFVARPVRFPREHQFFEDGD, the protein stability index worked out at 4.84.

As to AAPKRFVARPVRFPREHQFFEDGD, the protein stability index is 4.41.

As to AAPVRFVARPVRFPREHQFFEDGD, the protein stability index came to 4.24.

Turning to AAPCRFVARPVRFPREHQFFEDGD, the protein stability index turned out to be 3.4.

AAPIRFVARPVRFPREHQFFEDGD: the protein stability index is 3.9.

For the variant AAPWRFVARPVRFPREHQFFEDGD, the protein stability index turned out to be 2.48.

As to AAPGRFVARPVRFPREHQFFEDGD, the protein stability index stood at 4.57.

With AAPSRFVARPVRFPREHQFFEDGD, the protein stability index was 4.53.

As to AAPYRFVARPVRFPREHQFFEDGD, the protein stability index worked out at 3.68.

For AAPERFVARPVRFPREHQFFEDGD, the protein stability index worked out at 4.46.

Turning to AAPDRFVARPVRFPREHQFFEDGD, the protein stability index was found to be 4.77.

Regarding AAPNRFVARPVRFPREHQFFEDGD, the protein stability index was 4.37.

In the case of AAPLRFVARPVRFPREHQFFEDGD, the protein stability index is 3.65.

AAPRRFVARPVRFPREHQFFEDGD: the protein stability index worked out at 3.94.

Consider AAPFRCVARPVRFPREHQFFEDGD, for which the protein stability index came to 2.81.

For the variant AAPFRVVARPVRFPREHQFFEDGD, the protein stability index is 3.89.

For AAPFRYVARPVRFPREHQFFEDGD, the protein stability index amounted to 1.69.

For AAPFRTVARPVRFPREHQFFEDGD, the protein stability index was determined as 4.03.

As for AAPFRAVARPVRFPREHQFFEDGD, the protein stability index was 4.3.

As to AAPFRGVARPVRFPREHQFFEDGD, the protein stability index was determined as 4.43.

Regarding AAPFRHVARPVRFPREHQFFEDGD, the protein stability index worked out at 4.18.

Turning to AAPFRIVARPVRFPREHQFFEDGD, the protein stability index was 3.38.

Take AAPFRDVARPVRFPREHQFFEDGD: the protein stability index came out at 4.19.

On to AAPFRKVARPVRFPREHQFFEDGD, for which the protein stability index was determined as 4.36.

With AAPFREVARPVRFPREHQFFEDGD, the protein stability index came to 4.45.

On to AAPFRSVARPVRFPREHQFFEDGD, for which the protein stability index came out at 4.26.

Take AAPFRRVARPVRFPREHQFFEDGD: the protein stability index came out at 4.03.

Take AAPFRPVARPVRFPREHQFFEDGD: the protein stability index stood at 4.83.

With AAPFRNVARPVRFPREHQFFEDGD, the protein stability index worked out at 4.55.

For AAPFRQVARPVRFPREHQFFEDGD, the protein stability index was determined as 4.94.

On to AAPFRWVARPVRFPREHQFFEDGD, for which the protein stability index was found to be 3.41.

As for AAPFRLVARPVRFPREHQFFEDGD, the protein stability index was found to be 3.47.

For the variant AAPFRMVARPVRFPREHQFFEDGD, the protein stability index was determined as 4.13.
